Residue numbers refer to the chain shown, from its start.
T1: human Sema 3A protein (human, UniProt Q14563 21-771, limits assumed)
T1 construct: also called Human Sema 3A antigen; human-derived Sema 3A protein
T1 sequence (looked up): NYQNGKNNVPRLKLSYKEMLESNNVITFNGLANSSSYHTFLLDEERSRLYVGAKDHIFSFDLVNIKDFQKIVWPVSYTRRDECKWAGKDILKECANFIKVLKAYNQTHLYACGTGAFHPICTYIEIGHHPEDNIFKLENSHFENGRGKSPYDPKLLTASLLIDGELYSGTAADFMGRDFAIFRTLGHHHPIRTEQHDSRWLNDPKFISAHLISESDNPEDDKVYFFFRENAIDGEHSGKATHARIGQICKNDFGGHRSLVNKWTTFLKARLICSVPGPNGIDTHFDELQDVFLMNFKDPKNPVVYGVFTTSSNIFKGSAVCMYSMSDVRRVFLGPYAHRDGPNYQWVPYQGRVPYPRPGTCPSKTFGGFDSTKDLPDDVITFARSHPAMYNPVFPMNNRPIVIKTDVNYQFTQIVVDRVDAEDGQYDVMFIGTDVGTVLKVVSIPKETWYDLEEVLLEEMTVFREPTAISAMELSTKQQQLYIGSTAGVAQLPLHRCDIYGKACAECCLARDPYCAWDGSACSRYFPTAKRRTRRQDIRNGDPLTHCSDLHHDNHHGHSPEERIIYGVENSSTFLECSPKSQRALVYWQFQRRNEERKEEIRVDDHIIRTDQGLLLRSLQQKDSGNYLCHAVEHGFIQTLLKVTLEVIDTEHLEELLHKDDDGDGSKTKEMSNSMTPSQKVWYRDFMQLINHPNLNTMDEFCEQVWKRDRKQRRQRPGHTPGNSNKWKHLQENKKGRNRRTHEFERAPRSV

T2: mouse Sema 3A protein (mouse, UniProt O08665 21-772, limits assumed)
T2 construct: Produced from mouse Sema 3A protein expressing cells; also called Mouse Sema 3A antigen
T2 sequence (looked up): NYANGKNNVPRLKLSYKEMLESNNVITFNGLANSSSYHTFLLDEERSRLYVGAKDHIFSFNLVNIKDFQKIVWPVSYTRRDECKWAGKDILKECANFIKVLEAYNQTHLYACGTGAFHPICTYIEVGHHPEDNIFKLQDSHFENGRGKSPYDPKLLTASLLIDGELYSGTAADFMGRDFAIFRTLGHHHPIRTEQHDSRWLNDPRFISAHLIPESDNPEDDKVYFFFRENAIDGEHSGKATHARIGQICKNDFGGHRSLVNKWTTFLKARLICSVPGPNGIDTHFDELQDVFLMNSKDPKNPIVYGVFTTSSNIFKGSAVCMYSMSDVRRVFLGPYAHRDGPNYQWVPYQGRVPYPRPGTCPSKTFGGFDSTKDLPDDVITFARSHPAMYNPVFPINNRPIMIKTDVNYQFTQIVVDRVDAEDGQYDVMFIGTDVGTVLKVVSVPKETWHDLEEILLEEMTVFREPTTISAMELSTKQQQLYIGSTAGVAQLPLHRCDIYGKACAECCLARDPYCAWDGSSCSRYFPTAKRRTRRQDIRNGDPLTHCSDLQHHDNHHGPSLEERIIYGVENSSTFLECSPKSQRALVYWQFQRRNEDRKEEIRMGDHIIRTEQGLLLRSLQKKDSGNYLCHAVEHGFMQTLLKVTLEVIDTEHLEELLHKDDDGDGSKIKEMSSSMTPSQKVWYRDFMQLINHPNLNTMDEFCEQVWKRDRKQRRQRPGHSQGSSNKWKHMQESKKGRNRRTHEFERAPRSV

T3: ovalbumin (OVA) (UniProt P01012 2-386)
T3 sequence (looked up): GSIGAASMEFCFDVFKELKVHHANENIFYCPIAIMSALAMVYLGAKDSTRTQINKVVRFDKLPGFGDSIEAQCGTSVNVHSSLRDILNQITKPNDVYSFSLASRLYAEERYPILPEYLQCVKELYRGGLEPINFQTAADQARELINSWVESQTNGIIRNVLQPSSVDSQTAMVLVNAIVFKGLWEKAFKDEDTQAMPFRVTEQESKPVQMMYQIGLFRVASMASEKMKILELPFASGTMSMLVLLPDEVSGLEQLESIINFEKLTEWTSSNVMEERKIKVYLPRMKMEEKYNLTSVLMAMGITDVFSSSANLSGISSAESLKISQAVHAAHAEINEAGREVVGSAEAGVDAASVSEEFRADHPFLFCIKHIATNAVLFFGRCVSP

B1: Anti-Sema 3A avian-mouse chimeric antibody (clone No. 165 strain-derived) (antibody, V domains shown)
VH: AVTLDESGGGLQTPGGGLSLVCKASGFTFSSYEMQWVRQAPGKGLEWVAGIYTGSTWYGAAVKGRATISRDNGQSTVRLQLNNLRAEDTAIYYCAKSGIGVNSAAFIDAWGHGTEVIVSS
VL: ALTQPASVSANPGETVKITCSGGGSYGGSYYYGWYQQKAPGSAPVTVIYNNNKRPSNIPSRFSGSLSGSTNTLTITGVRADDEAVYFCGSADNSGTAFGAGTTLTVL
notes: IgG from DT40 cells in which the constant region of chicken IgM was replaced with that of mouse IgG
B2: Anti-Sema 3A avian antibody (clone No. 240-40 strain-derived) (antibody, V domains shown)
VH: AVTLDESGGGLQTPGGALSLVCKASGFTFSSYDMNWVRQAPGKGLEWVAGIYSGSSTYYGAAVKGRATISRDNGQSTLRLQLNNLRAEDTGIYYCAKSAIPVNSAGSIDAWGHGTEVIVSS
VL: B1 VL with G33S, Y35H, A39S, P44L, N50Y, N57D, N93T
notes: Avian (chicken) IgM
B3: Anti-Sema 3A avian antibody (clone No. 255-72 strain-derived) (antibody, V domains shown)
VH: B1 VH with G17A, T53S, A90G, I91T, V101F, A105G, F106S
VL: B1 VL with G33S, Y35H, A39S, P44L, N50Y, N57D, T96S
notes: Avian (chicken) IgM
B4: Anti-Sema 3A avian-mouse chimeric antibody (clone No. 582 strain-derived) (antibody, V domains shown)
VH: B1 VH with G17A, F29M, G50A, G54R, A90G, I91T, V101L
VL: B1 VL with N50T
notes: as for B1
B5: Anti-Sema 3A humanized antibody (Humanized-1) (clone No. 4-2 strain-derived) (antibody, human IgG1, lambda, V domains shown)
VH: EVQLLESGGGLVQPGGSLRLSCAASGFTFSSYPMGWVRQAPGKGLEWVAGIDDDGDSDTRYAPAVKGRATISRDNSKNTVYLQMNSLRAEDTAVYYCAKHTGIGANSAGSIDAWGQGTLVTVSS
VL: SYELTQPPSVSVSPGQTARITCSGGGSYTGSYYYGWYQQKPGQAPVTMIYYNNKRPSDIPERFSGSLSGTTNTLTISGVQAEDEADYYCGSADNSGDAFGTGTKVTVLG
notes: Human IgG1 heavy and human lambda light constant regions
B6: Anti-Sema 3A humanized antibody (Humanized-2) (clone No. 4-2 strain-derived) (antibody, human IgG1, lambda, V domains shown)
VH: B5 VH
VL: B5 VL with M48V
notes: as for B5
B7: Anti-Sema 3A avian-human chimeric antibody (clone No. 4-2-derived) (antibody, human IgG1)
heavy: not shown
light: ALTQPASVSANLGGTVKITCSGGGSYTGSYYYGWYQQKSPGSALVTMIYYNNKRPSDIPSRFSGSLSGSTNTLTITGVRADDEAVYFCGSADNSGDAFGAGTTLTVLGQPKANPTVTLFPPSSEELQANKATLVCLISDFYPGAVTVAWKADSSPVKAGVETTTPSKQSNNKYAASSYLSLTPEQWKSHRSYSCQVTHEGSTVEKTVAPTECS

What was measured:
human Sema 3A protein [1] = target: T1, human Sema 3A protein; assay: direct solid phase ELISA screening with human Sema 3A as antigen
mouse Sema 3A protein [2] = target: T2, mouse Sema 3A protein; assay: direct solid phase ELISA screening with mouse Sema 3A as antigen
Method: A direct solid phase ELISA was carried out according to the following process. In Day 6 after the step 2-2), 2.5 μg/mL of mouse Sema 3A protein was dispensed into a 384 well Maxisorp (Nunc) by 20 μL each and left to stand overnight. Ovalbumin (OA) and rabbit IgG (rIgG) were immobilized in the plate as negative controls in similar manner in order to examine the specificity of antibodies. On the next day, the content in the plate was removed and 45 μL of blocking solution (PBS buffer containing 1% BSA) was added thereto, followed by incubation at room temperature for one hour. The plate was washed five times with 120μL/well of ELISA washing buffer (PBS containing 0.05 wt % Tween 20), to which were added culture supernatants derived from the colony obtained by selection in the step 2-2) by 25 μL/well and then incubated at room temperature for one hour. The plate was washed five times with 120 μL/well of ELISA washing solution and then to which was added 25 μL of diluent in which a secondary antibody was diluted 2000 times with a blocking buffer and incubated at room temperature for 45 minutes. Anti-chicken IgM-HRP (Bethyl Laboratories, Inc.) was used as a secondary antibody. […] Subsequently, the reaction was quenched with 25 μL of 1N sulfuric acid to determine the absorbance at 450 nm.

human Sema 3A protein [3] = target: T1, human Sema 3A protein; assay: competitive ELISA on plate-coated human Sema 3A; competitor biotin-labelled avian-mouse chimeric antibody (clone No. 4-2) at 60 ng/mL
Method: (§1) The obtained clone No. 4-2-derived avian-mouse chimeric antibody in Example 1, the obtained humanized antibodies in Example 2 (Humanized-1 and Humanized-2) and avian-human chimeric antibody were subjected to competitive ELISA to evaluate affinity to the antigen. CL18M (+) avian-mouse chimeric antibody, which served as a negative control, was also measured for affinity to the antigen. Particular measurement conditions were as follows.
(§2) Firstly, 2.5 μg/mL of antigen (mouse and human Sema 3A protein) was dispensed into a 384 Well MaxiSorp Plate (Nunc) and reacted overnight at 4° C. in order to coat the plate with the antigen. The next day, the plate was washed three times with 50 μL/well of washing solution (PBS containing 0.05% Tween 20), to which was added 25 μL/well of blocking solution (PBS containing 1% bovine serum albumin) and the mixture was reacted for 30 minutes. Each of humanized antibodies (Humanized-1 and Humanized-2), avian-human chimeric antibody and avian-mouse chimeric antibody was subjected to serial doubling dilution, to which was mixed anti-Sema 3A avian-mouse chimeric antibody labeled with biotin to the final concentration of 60 ng/mL, and the mixture was reacted with the antigen solid phase plate which was washed three times with 50 μL/well of washing solution for one hour. The plate was washed five times with 50 μL/well of washing solution, to which was added 20 μL/well of diluent in which streptavidin labeled with horseradish peroxidase (HRP) (Thermo Fisher Scientific K.K.) was diluted 10000 times with PBS buffer and the mixture was reacted for 30 minutes. The plate was washed five times with 50 μL/well of washing solution, to which was added 20 μL/well of TMB+(Dako) and the mixture was chromogenically reacted for 20 minutes. Subsequently, to the each well was added 20 μL, of 1M sulfuric acid to quench the reaction. The absorbance was measured at 450 nm using Infinite M1000 (Tecan Trading AG).

mouse Sema 3A protein [4] = target: T2, mouse Sema 3A protein; assay: competitive ELISA on plate-coated mouse Sema 3A; competitor biotin-labelled avian-mouse chimeric antibody (clone No. 4-2) at 60 ng/mL
Method: as §1, §2

ovalbumin (OVA) = target: T3, ovalbumin (OVA); assay: antigen solid phase ELISA: coated ovalbumin, anti-human lambda light chain-HRP, A450
Method: (§3) The obtained avian-mouse chimeric antibody in Example 1 and the obtained humanized antibodies (Humanized-1 and Humanized-2) and avian-human chimeric antibody in Example 2 were measured for antigenic specificity by antigen solid phase ELISA with PBS buffer. The obtained avian-mouse chimeric antibody in Example 1, which was labeled with biotin, was also measured for antigenic specificity. CL18M (+) avian-mouse chimeric antibody, which served as a negative control, was also measured for antigenic specificity. Particular measurement conditions were as follows.
(§4) Firstly, 2.5 μg/mL of antigen (mouse and human Sema 3A protein) was dispensed into a 384 Well MaxiSorp Plate (Nunc) and reacted overnight at 4° C. in order to coat the plate with the antigen. Otherwise, ovalbumin (OVA) and bovine serum albumin (BSA) were immobilized in the plate as negative controls in similar manner in order to examine specificity of antibodies. After reaction, the plate was washed three times with 50 μL/well of washing solution (PBS containing 0.05% Tween 20), to which was added 25 μL/well of blocking solution (PBS buffer containing 1% bovine serum albumin), and the mixture was reacted for 30 minutes. The resultant product was washed three times with 50 μL/well of washing solution, to which were added 20 μL/well of respective antibodies and the mixture was reacted for one hour. The resultant product was washed five times with 50 μL/well of washing solution, to which was added 20 μL of diluent in which anti-human λ light chain goat antibody labeled with horseradish peroxidase (HRP) (SouthernBiotech) was diluted 4000 times with PBS buffer, in which anti-mouse IgG2A goat antibody labeled with horseradish peroxidase (HRP) (Bethyl Laboratories, Inc.) was diluted 2000 times with PBS buffer or in which streptavidin labeled with horseradish peroxidase (HRP) (Thermo Fisher Scientific K.K.) was diluted 10000 times with PBS buffer and the mixture was reacted for one hour. […] The absorbance was measured at 450 nm using Infinite M1000 (Tecan Trading AG).

[5] = target: bovine serum albumin (BSA) (bovine, UniProt P02769 25-607); assay: antigen solid phase ELISA: coated BSA, anti-human lambda light chain-HRP, A450
Sequence of bovine serum albumin (BSA) (P02769 25-607 limits assumed): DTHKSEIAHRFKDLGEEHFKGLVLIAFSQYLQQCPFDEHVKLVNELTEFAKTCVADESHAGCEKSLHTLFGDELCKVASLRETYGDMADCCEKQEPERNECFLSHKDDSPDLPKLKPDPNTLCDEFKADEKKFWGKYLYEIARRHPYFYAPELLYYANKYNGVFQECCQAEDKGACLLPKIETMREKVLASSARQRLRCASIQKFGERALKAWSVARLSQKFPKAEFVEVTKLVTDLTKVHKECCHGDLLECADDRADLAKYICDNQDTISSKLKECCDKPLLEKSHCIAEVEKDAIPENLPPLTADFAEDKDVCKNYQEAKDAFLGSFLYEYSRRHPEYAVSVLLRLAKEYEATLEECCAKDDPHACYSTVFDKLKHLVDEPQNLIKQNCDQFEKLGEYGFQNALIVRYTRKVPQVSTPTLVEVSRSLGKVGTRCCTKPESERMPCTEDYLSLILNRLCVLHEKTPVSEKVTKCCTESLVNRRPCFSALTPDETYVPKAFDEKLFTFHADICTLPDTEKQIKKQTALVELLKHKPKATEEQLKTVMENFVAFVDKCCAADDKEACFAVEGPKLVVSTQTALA
Method: as §3, §4

Row | Binder | binding result (human Sema 3A protein [1]) | binding result (mouse Sema 3A protein [2]) | IC50 (human Sema 3A protein [3]) [µg/mL] | IC50 (mouse Sema 3A protein [4]) [µg/mL] | binding result (ovalbumin (OVA)) | binding result [5]
1 | B1 | binds | – | – | – | – | –
2 | B2 | – | binds | – | – | – | –
3 | B3 | – | binds | – | – | – | –
4 | B4 | binds | – | – | – | – | –
5 | B5 | – | – | 0.071 | 0.12 | no binding (tested: about 2 µg/mL) | no binding (tested: about 2 µg/mL)
6 | B6 | – | – | 0.101 | 0.157 | no binding (tested: about 2 µg/mL) | no binding (tested: about 2 µg/mL)
7 | B7 | – | – | 0.054 | 0.112 | no binding (tested: about 2 µg/mL) | no binding (tested: about 2 µg/mL)
